This passage reports localisation_or_trafficking results from publication PMC11773478.

This data set in a line: cell surface biotinylation, streptavidin pull-down, EPHA1 immunoblot. Particulars: glycan lost; control: wild type. A general note: A western blot detects proteins with antibodies after separation by electrophoresis.

B1: EPHA1: N414A (protein)
parent chain: MERRWPLGLGLVLLLCAPLPPGARAKEVTLMDTSKAQGELGWLLDPPKDGWSEQQQILNGTPLYMYQDCPMQGRRDTDHWLRSNWIYRGEEASRVHVELQFTVRDCKSFPGGAGPLGCKETFNLLYMESDQDVGIQLRRPLFQKVTTVAADQSFTIRDLVSGSVKLNVERCSLGRLTRRGLYLAFHNPGACVALVSVRVFYQRCPETLNGLAQFPDTLPGPAGLVEVAGTCLPHARASPRPSGAPRMHCSPDGEWLVPVGRCHCEPGYEEGGSGEACVACPSGSYRMDMDTPHCLTCPQQSTAESEGATICTCESGHYRAPGEGPQVACTGPPSAPRNLSFSASGTQLSLRWEPPADTGGRQDVRYSVRCSQCQGTAQDGGPCQPCGVGVHFSPGARGLTTPAVHVNGLEPYANYTFNVEAQNGVSGLGSSGHASTSVSISMGHAESLSGLSLRLVKKEPRQLELTWAGSRPRSPGANLTYELHVLNQDEERYQMVLEPRVLLTELQPDTTYIVRVRMLTPLGPGPFSPDHEFRTSPPVSRGLTGGEIVAVIFGLLLGAALLLGILVFRSRRAQRQRQQRQRDRATDVDREDKLWLKPYVDLQAYEDPAQGALDFTRELDPAWLMVDTVIGEGEFGEVYRGTLRLPSQDCKTVAIKTLKDTSPGGQWWNFLREATIMGQFSHPHILHLEGVVTKRKPIMIITEFMENGALDAFLREREDQLVPGQLVAMLQGIASGMNYLSNHNYVHRDLAARNILVNQNLCCKVSDFGLTRLLDDFDGTYETQGGKIPIRWTAPEAIAHRIFTTASDVWSFGIVMWEVLSFGDKPYGEMSNQEVMKSIEDGYRLPPPVDCPAPLYELMKNCWAYDRARRPHFQKLQAHLEQLLANPHSLRTIANFDPRMTLRLPSLSGSDGIPYRTVSEWLESIRMKRYILHFHSAGLDTMECVLELTAEDLTQMGITLPGHQKRILCSIQGFKD
In the case of B1, the localisation_or_trafficking entry was “decreases”.

B2: EPHA1: N478A (protein)
parent chain: MERRWPLGLGLVLLLCAPLPPGARAKEVTLMDTSKAQGELGWLLDPPKDGWSEQQQILNGTPLYMYQDCPMQGRRDTDHWLRSNWIYRGEEASRVHVELQFTVRDCKSFPGGAGPLGCKETFNLLYMESDQDVGIQLRRPLFQKVTTVAADQSFTIRDLVSGSVKLNVERCSLGRLTRRGLYLAFHNPGACVALVSVRVFYQRCPETLNGLAQFPDTLPGPAGLVEVAGTCLPHARASPRPSGAPRMHCSPDGEWLVPVGRCHCEPGYEEGGSGEACVACPSGSYRMDMDTPHCLTCPQQSTAESEGATICTCESGHYRAPGEGPQVACTGPPSAPRNLSFSASGTQLSLRWEPPADTGGRQDVRYSVRCSQCQGTAQDGGPCQPCGVGVHFSPGARGLTTPAVHVNGLEPYANYTFNVEAQNGVSGLGSSGHASTSVSISMGHAESLSGLSLRLVKKEPRQLELTWAGSRPRSPGANLTYELHVLNQDEERYQMVLEPRVLLTELQPDTTYIVRVRMLTPLGPGPFSPDHEFRTSPPVSRGLTGGEIVAVIFGLLLGAALLLGILVFRSRRAQRQRQQRQRDRATDVDREDKLWLKPYVDLQAYEDPAQGALDFTRELDPAWLMVDTVIGEGEFGEVYRGTLRLPSQDCKTVAIKTLKDTSPGGQWWNFLREATIMGQFSHPHILHLEGVVTKRKPIMIITEFMENGALDAFLREREDQLVPGQLVAMLQGIASGMNYLSNHNYVHRDLAARNILVNQNLCCKVSDFGLTRLLDDFDGTYETQGGKIPIRWTAPEAIAHRIFTTASDVWSFGIVMWEVLSFGDKPYGEMSNQEVMKSIEDGYRLPPPVDCPAPLYELMKNCWAYDRARRPHFQKLQAHLEQLLANPHSLRTIANFDPRMTLRLPSLSGSDGIPYRTVSEWLESIRMKRYILHFHSAGLDTMECVLELTAEDLTQMGITLPGHQKRILCSIQGFKD
B2: the localisation_or_trafficking result is recorded as “decreases”.

B3: EPHA1: N414A-N478A (protein)
parent chain: MERRWPLGLGLVLLLCAPLPPGARAKEVTLMDTSKAQGELGWLLDPPKDGWSEQQQILNGTPLYMYQDCPMQGRRDTDHWLRSNWIYRGEEASRVHVELQFTVRDCKSFPGGAGPLGCKETFNLLYMESDQDVGIQLRRPLFQKVTTVAADQSFTIRDLVSGSVKLNVERCSLGRLTRRGLYLAFHNPGACVALVSVRVFYQRCPETLNGLAQFPDTLPGPAGLVEVAGTCLPHARASPRPSGAPRMHCSPDGEWLVPVGRCHCEPGYEEGGSGEACVACPSGSYRMDMDTPHCLTCPQQSTAESEGATICTCESGHYRAPGEGPQVACTGPPSAPRNLSFSASGTQLSLRWEPPADTGGRQDVRYSVRCSQCQGTAQDGGPCQPCGVGVHFSPGARGLTTPAVHVNGLEPYANYTFNVEAQNGVSGLGSSGHASTSVSISMGHAESLSGLSLRLVKKEPRQLELTWAGSRPRSPGANLTYELHVLNQDEERYQMVLEPRVLLTELQPDTTYIVRVRMLTPLGPGPFSPDHEFRTSPPVSRGLTGGEIVAVIFGLLLGAALLLGILVFRSRRAQRQRQQRQRDRATDVDREDKLWLKPYVDLQAYEDPAQGALDFTRELDPAWLMVDTVIGEGEFGEVYRGTLRLPSQDCKTVAIKTLKDTSPGGQWWNFLREATIMGQFSHPHILHLEGVVTKRKPIMIITEFMENGALDAFLREREDQLVPGQLVAMLQGIASGMNYLSNHNYVHRDLAARNILVNQNLCCKVSDFGLTRLLDDFDGTYETQGGKIPIRWTAPEAIAHRIFTTASDVWSFGIVMWEVLSFGDKPYGEMSNQEVMKSIEDGYRLPPPVDCPAPLYELMKNCWAYDRARRPHFQKLQAHLEQLLANPHSLRTIANFDPRMTLRLPSLSGSDGIPYRTVSEWLESIRMKRYILHFHSAGLDTMECVLELTAEDLTQMGITLPGHQKRILCSIQGFKD
Turning to B3, the localisation_or_trafficking entry is listed as “decreases”.
